Target: VN-HOXA9 (human) (UniProt P31269)
Assay: split reporter (BiFC, NanoBiT); individual BiFC in live HEK293T cells: plix-VN-HOXA9, plix-CC-ORF and plix-mCherry co-transfected, 18 h with doxycycline 100 ng/mL, confocal imaging; HOXA9/PBX1 as calibrator

Sequence of UniProt P31269 (P31269 whole entry): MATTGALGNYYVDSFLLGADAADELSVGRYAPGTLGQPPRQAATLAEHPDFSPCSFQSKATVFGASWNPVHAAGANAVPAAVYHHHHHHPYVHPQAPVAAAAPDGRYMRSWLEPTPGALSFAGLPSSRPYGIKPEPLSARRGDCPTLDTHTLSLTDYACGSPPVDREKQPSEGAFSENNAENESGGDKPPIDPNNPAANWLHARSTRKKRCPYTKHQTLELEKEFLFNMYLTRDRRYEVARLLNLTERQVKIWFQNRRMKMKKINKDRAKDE

Question: “CC-C6orf201 (from UniProt B3KW47 1-115) (natural protein)” was tested. Which BiFC fluorescence as percent of HOXA9/PBX1 BiFC did it give?
Answer: < 15%

From paper PMC9818449
